# Measured values published in patent US20260042834A1 (HBM ALPHA THERAPEUTICS, published 2026).
# “And” between values parts separate entries of the source, which are not always exact repeats. Identical values can stand only once. Like-named read-outs stand apart in the source and are kept apart here.
# T1: corticotropin-releasing hormone (CRH) peptide (human and mouse (same sequence), not fully specified)
# T1 peptide: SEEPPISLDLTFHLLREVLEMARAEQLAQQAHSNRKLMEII
# T2: CRH (CT-Biotin) (human and mouse (same sequence), biotin on an added C-terminal K (CRH-K-Biotin))
# T2 construct: also called Peptide 4 (CRH-Biotin)
# T2 peptide: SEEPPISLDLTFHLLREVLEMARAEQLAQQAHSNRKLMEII
# T3: CRH (NT-Biotin) (human and mouse (same sequence), not fully specified; biotin at the N-terminus)
# T3 peptide: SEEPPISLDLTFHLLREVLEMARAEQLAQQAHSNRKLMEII
# T4: biotinylated CRH (human and mouse, not fully specified; biotinylated, position not stated)
# T4 construct: also called Biotin-CRH; biotin-labeled CRH
# T4 peptide: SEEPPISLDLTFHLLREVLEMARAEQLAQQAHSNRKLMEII
# T5: human UCN1 peptide (human, UniProt P55089 83-122, not fully specified; biotin at N- or C-terminus in the ELISA)
# T5 construct: also called hUCN1; hUCN1 (NT Biotin)
# T5 peptide (looked up): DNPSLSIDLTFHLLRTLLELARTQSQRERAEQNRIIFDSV
# T6: human UCN2 peptide (human, UniProt Q96RP3 72-109, limits assumed, not fully specified; biotin at N- or C-terminus in the ELISA)
# T6 construct: also called hUCN2; hUCN2 (NT Biotin)
# T6 peptide (looked up): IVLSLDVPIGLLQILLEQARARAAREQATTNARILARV
# T7: human UCN3 peptide (human, UniProt Q969E3 120-157, not fully specified; biotin at N- or C-terminus in the ELISA)
# T7 construct: also called hUCN3; hUCN3 (NT Biotin)
# T7 peptide (looked up): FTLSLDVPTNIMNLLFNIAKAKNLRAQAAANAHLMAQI
# Columns and labels:
# [1] = target: T1, corticotropin-releasing hormone (CRH) …; assay: cell-based or functional assay
# [2] = target: T1, corticotropin-releasing hormone (CRH) …; assay: cell-based or functional assay
# CRH (CT-Biotin) [3] = target: T2, CRH (CT-Biotin); assay: ELISA, biotinylated CRH on streptavidin plate
# Description: (§1) Streptavidin (Thermo, Cat: 21125) was diluted in PBS to a concentration of 2 μg/ml. 100 μl of diluted streptavidin was added per well to ELISA microplates, and the plates were incubated overnight at 4° C. […] 100 μL of 3,3′,5,5′-tetramethylbenzidine (TMB) substrate (Biopanda, Cat: TMB-S-003) was added, and the plates were incubated at room temperature for 15 minutes. 100 μL of ELISA stopping solution (Solarbio, Cat #: C1058) was added to terminate the reaction, and the optical density at 450 nm (OD450 nm) was determined by an ELISA plate reader (Molecular Devices, Spectra max 384 plus).
# CRH (NT-Biotin) [4] = target: T3, CRH (NT-Biotin); assay: ELISA, biotinylated CRH on streptavidin plate
# Description: as §1
# CRH (CT-Biotin) [5] = target: T2, CRH (CT-Biotin); assay: ELISA, biotinylated CRH on streptavidin plate
# Description: as §1
# CRH (NT-Biotin) [6] = target: T3, CRH (NT-Biotin); assay: ELISA, biotinylated CRH on streptavidin plate
# Description: as §1
# CRH (CT-Biotin) [7] = target: T2, CRH (CT-Biotin); assay: ELISA, biotinylated CRH on streptavidin plate
# Description: as §1
# CRH (NT-Biotin) [8] = target: T3, CRH (NT-Biotin); assay: ELISA, biotinylated CRH on streptavidin plate
# Description: as §1
# [9] = target: T1, corticotropin-releasing hormone (CRH) …; assay: cell-based or functional assay
# CRH (CT-Biotin) [10] = target: T2, CRH (CT-Biotin); assay: ELISA, biotinylated CRH on streptavidin plate
# Description: as §1
# CRH (NT-Biotin) [11] = target: T3, CRH (NT-Biotin); assay: ELISA, biotinylated CRH on streptavidin plate
# Description: as §1
# CRH (CT-Biotin) [12] = target: T2, CRH (CT-Biotin); assay: ELISA, biotinylated CRH on streptavidin plate
# Description: as §1
# CRH (NT-Biotin) [13] = target: T3, CRH (NT-Biotin); assay: ELISA, biotinylated CRH on streptavidin plate
# Description: as §1
# [14] = target: T1, corticotropin-releasing hormone (CRH) …; assay: cell-based or functional assay
# [15] = target: T1, corticotropin-releasing hormone (CRH) …; assay: cell-based or functional assay
# [16] = target: T1, corticotropin-releasing hormone (CRH) …; assay: cell-based or functional assay
# CRH (CT-Biotin) [17] = target: T2, CRH (CT-Biotin); assay: ELISA, biotinylated CRH on streptavidin plate
# Description: as §1
# CRH (NT-Biotin) [18] = target: T3, CRH (NT-Biotin); assay: ELISA, biotinylated CRH on streptavidin plate
# Description: as §1
# biotinylated CRH [19] = target: T4, biotinylated CRH; assay: Octet in-tandem, row = 1st mAb; competitor (2nd mAb) PR303394
# Description: (§2) SA sensors (Fortebio, Cat #18-5019) were hydrated in running buffer for 10 mins.
# biotinylated CRH [20] = target: T4, biotinylated CRH; assay: Octet BLI, biotinylated CRH on SA sensor
# biotinylated CRH [21] = target: T4, biotinylated CRH; assay: Octet in-tandem, row = 1st mAb; competitor (2nd mAb) PR005660
# Description: as §2
# biotinylated CRH [22] = target: T4, biotinylated CRH; assay: Octet in-tandem, row = 1st mAb; competitor (2nd mAb) PR302309-8
# Description: as §2
# biotinylated CRH [23] = target: T4, biotinylated CRH; assay: Octet in-tandem, row = 1st mAb; competitor (2nd mAb) PR301777
# Description: as §2
# biotinylated CRH [24] = target: T4, biotinylated CRH; assay: Octet in-tandem, row = 1st mAb; competitor (2nd mAb) PR302334
# Description: as §2
# biotinylated CRH [25] = target: T4, biotinylated CRH; assay: Octet in-tandem, row = 1st mAb; competitor (2nd mAb) PR006669
# Description: as §2
# biotinylated CRH [26] = target: T4, biotinylated CRH; assay: Octet in-tandem, row = 1st mAb; competitor (2nd mAb) PR302341-34
# Description: as §2
# human UCN1 peptide = target: T5, human UCN1 peptide; assay: ELISA, biotinylated hUCN1 on streptavidin plates
# human UCN2 peptide = target: T6, human UCN2 peptide; assay: ELISA, biotinylated hUCN2 on streptavidin plates
# In short: (§3)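 Streptavidin-coated plates (2 μg/mL, overnight 4° C.), blocked with 2% BSA/0.05% Tween-20 PBS pH 7.4, then loaded with 1 μg/mL N- or C-terminally biotinylated hUCN peptide, 1 hour at 37° C. Detection by TMB substrate, 15 minutes at room temperature, stopped, OD450 nm read.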
# human UCN3 peptide = target: T7, human UCN3 peptide; assay: ELISA, biotinylated hUCN3 on streptavidin plates
# In short: as §3
binder,measurement,setting,value
"PR004290 (antibody, human IgG1, kappa, V domains shown, Series 1; human IgG1 wildtype Fc; also called Hybridoma Clone 28b3) VH: EVQLVESGGVLVQPGGSLRLSCAASGFTFSSYWMTWVRQAPGKGLEWVANIKQDGSEKYYVDSVKGRFTISRDNAKNSLFLQMNSLRAEDTAVYYCARTLIFDYWGQGTLVTVSS VL: DIVMTQSPLSLPVTPGEPASISCRSSQSLLHSTGYNSLEWYLQKPGQSPQLLIYLGSNRASGVPDRFSGSGSGTDFTLKISRVEAEDVGIYYCMQTLQTPITFGQGTRLEIKR",mCrhr1 Luciferase Reporter Assay IC50,[1],5.24 nM
same,hCRHR1 Luciferase Reporter Assay IC50,[2],1.83 nM
same,mCrhr1 Luciferase Reporter Assay IC50,[2],5.24 nM
same,EC50,CRH (CT-Biotin) [3],0.07 nM
same,EC50,CRH (NT-Biotin) [4],0.039 nM
same,EC50,CRH (CT-Biotin) [5],0.07 nM
same,EC50,CRH (NT-Biotin) [6],0.039 nM
same,EC50,CRH (CT-Biotin) [7],0.07 nM
same,EC50,CRH (NT-Biotin) [8],0.039 nM
same,hCRHR1 Luciferase Reporter Assay IC50,[9],3.69 nM and 4.87 nM
same,mCrhr1 Luciferase Reporter Assay IC50,[9],17 nM and 7.78 nM
same,EC50,CRH (CT-Biotin) [10],0.032 nM
same,EC50,CRH (NT-Biotin) [11],0.029 nM
same,EC50,CRH (CT-Biotin) [12],0.07 nM
same,EC50,CRH (NT-Biotin) [13],0.039 nM
same,hCRHR1 Luciferase Reporter Assay IC50,[14],5.41 nM
same,mCrhr1 Luciferase Reporter Assay IC50,[14],18.5 nM
same,hCRHR1 Luciferase Reporter Assay IC50,[15],3.69 nM
same,mCrhr1 Luciferase Reporter Assay IC50,[15],13 nM
same,hCRHR1 Luciferase Reporter Assay IC50,[16],1.83 nM
same,mCrhr1 Luciferase Reporter Assay IC50,[16],5.24 nM
same,EC50,CRH (CT-Biotin) [17],0.064 nM and 0.032 nM
same,EC50,CRH (NT-Biotin) [18],0.029 nM
"PR302334 (antibody, human IgG1, kappa, V domains shown, Series 9; mouse variable domains with human IgG1 wildtype Fc) VH: EVKLVESGGGLVKPGGSLKLSCAASGFTFSTYAMSWVRQTPEKRLEWVASIRSGGTTYYPDSVKGRFTISRDNARNILYLQMSSLRSEDTAIYYCTRGIDWGQGTLVTVSA VL: NIVMTQTPKFLLVSAGDRITITCKASQSVNNDVAWYQQKPGQSPKLLIYYASNRYTGVPDRFTGSGYGTDFTFTISTVQAEDLAVYFCQQDYSSWTFGGGTNLEIKR",% Inhibition,biotinylated CRH [19],89%
same,Kd,biotinylated CRH [20],< 0.001 nM
same,koff,biotinylated CRH [20],< 1e-07 s⁻¹
same,kon,biotinylated CRH [20],669000 M⁻¹ s⁻¹
same,% Inhibition,biotinylated CRH [21],92%
same,% Inhibition,biotinylated CRH [22],91%
same,% Inhibition,biotinylated CRH [23],90%
same,% Inhibition,biotinylated CRH [24],95%
same,% Inhibition,biotinylated CRH [25],93%
same,% Inhibition,biotinylated CRH [26],88%
"PR302334-26 (antibody, human IgG1, kappa, V domains shown, Humanized variant of PR302334) VH: EVQLVESGGGLVQPGGSLRLSCAASGFTFSTYAMSWVRQAPGKGLEWVASIRSGGTTYYPDSVKGRFTISRDNSKNSLYLQMNSLRAEDTAVYYCTRGIDWGQGTTVTVSS VL: DIVMTQSPDSLAVSLGERATINCKASQSVNNDVAWYQQKPGQPPRLLIYYASNRYTGVPDRFSGSGSGTDFTLTISSLQAEDLAVYFCQQDYSSWTFGGGTKVEIKR",binding result,human UCN1 peptide,no binding (tested: 100 nM)
same,binding result,human UCN2 peptide,no binding (tested: 100 nM)
same,binding result,human UCN3 peptide,no binding (tested: 100 nM)
